Experiment: soluble fraction after stress (log2 fold change); higher = more stays soluble; pooled small domains, quantitative proteomics
Settings: stress: pH 4
Outline: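 Custom libraries of small protein domains were pooled and measured with high-throughput quantitative proteomics after pH 4 stress. The read-out is the fold change in the amount of each domain that stays soluble after the acid stress, taken as a measure of aggregation propensity. Fold changes are on a log2 scale, and higher values mean more of the domain stayed soluble.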
In the case of “HMDSSSYSAKVGTLIQETRQARGMTQAQLAQALGTSQSAINRIEKGGQNISLDMLNRISEVLSSQIVTLNP”, the “soluble fraction (log2)” value is reported as -0.255.
With “HMDSVAKSFLAEIERFLETAGLEPTTLGKQALGDPSFVFDLRKGRSPSTRTIGKLRVWMQQQNALS” the “soluble fraction (log2)” value was -1.24.
With “HMDSVTLGISFNGKTRFTLDFPADAAAADIEKAALEAEQSQRYLEGMTVAKVIVVPGRIVNIVLK” the “soluble fraction (log2)” value was -0.185.
In the case of “HMDSVTMYATTGVNVRSGPSTSYSIVGGLDRGDKVTRIGTSGNWTKVVWGNGSAYVFSKYLQTGY”, the “soluble fraction (log2)” value is reported as 0.232.
For “HMDTAEQNWRLRGKLVTLGLNARQIRMALASHAPRYLEDNIAVVERDLAAGKVRNLPAYLLAALREDYRP”, the “soluble fraction (log2)” value was -0.147.
For “HMDTEIGDILALRQIMELLDEKDRQLIIMRYFQGLTQSVTAKNLNMTQVQVSRREKKLLTFMREQLL”, the “soluble fraction (log2)” value was -0.761.
In the case of “HMDTEVVMINVVGMNIDKAKNSLNHKNILYKISYQDVSEGENNVVLKQSISSNTKIKKGQVVSLVVGKLN”, the “soluble fraction (log2)” value is reported as -0.0691.
With “HMDTFEITVEESDIDKRIDLFLAGNLESFSRSYIQDLIKKGKATISGKPVKANYRLREGDSVVLSIPKPK” the “soluble fraction (log2)” value was -0.946.
In the case of “HMDTGKLQSLVGSRGVAHTVLRPSGKVMIGDDVYPAVAETGFIPRGTAIVVRREEQGQLYVVEARK”, the “soluble fraction (log2)” value is reported as 0.275.
For “HMDTGPISGQVEADRVEVHGHLDGKISAQNVVVGQTGVVKGDIEFGENLRTEEGADIEGYIK”, the “soluble fraction (log2)” value was 0.22.
In the case of “HMDTGPSFATRRQEAFNALTQIAASNKEFMNVAGDVLWKVADFPEAQILAQRWRRIIPPNVLGEA”, the “soluble fraction (log2)” value is reported as -0.438.
For “HMDTIAEFIAELTPLEQKVFHVYYEKGQSLKDTAQQAEITSTSARGALDRIRAKGRHFHLAVILFIG”, the “soluble fraction (log2)” value was -1.22.
For “HMDTINEYERNILSLITSKPGISAVQIAADTDKSIITAKRGIKTLVDGKLIEYRGSKKTGGYFLLTQS”, the “soluble fraction (log2)” value was 0.275.
With “HMDTIYMVVAKNIKYYRLIKSMSKKDLAEAVNVTPMAISNYENGKRKPEIDILKKIANVLGVRVVDFLTVR” the “soluble fraction (log2)” value was -0.194.
For “HMDTKLFNYGVGKHAYISWNEGGKRTAYIGFGNDGADVLTINNVKQGGSLGIYKDKITLNSQTVLTD”, the “soluble fraction (log2)” value was -0.381.
In the case of “HMDTLHGRILEEFSRKIVDGTWPPGFSLPKETELADQYGVSRMTMNKVLTRLASDGFVIRRKRSGTVVAQP”, the “soluble fraction (log2)” value is reported as -0.176.
With “HMDTLTRAMVWTIIARAEGVDTTGGATWYAKAQEWVTAKGISDGENPNAAITRQELVTMLYRLAGEPAV” the “soluble fraction (log2)” value was -0.681.
With “HMDTMQQESMDTKSILATALMELTSRKNFAKITIADITHVSGFNRQTFYYHFRDKYELLSWIY” the “soluble fraction (log2)” value was -0.117.
For “HMDTNRIIGNKIYQLRRSINMTQQELAEKVGISVTFLSEIENGRKSMSVDTLIKLSKGLQVSLDTIVF”, the “soluble fraction (log2)” value was -0.831.
For “HMDTPVYYYVNGNGVRMRKDASLESDILILLYKGTKVEYVDVKGEWIKVKYNNEIGYIRNDLLSAEMPD”, the “soluble fraction (log2)” value was -0.527.
For “HMDTQITPNKAKEIALAHAGVTEAAANFKKIKLDNKNGKSIYEIEFIANKSRYEFIVDAKNGSIIKFEK”, the “soluble fraction (log2)” value was 0.102.
For “HMDTRKEREIALYEAALRLIASGVNPAAMKVQQIADEAGIGKGTVYEYFASKEEILHGMALH”, the “soluble fraction (log2)” value was -0.36.
For “HMDTTLFGLFQNVILTQEDYEELSRTIVEDLDGLIDRLSAYMTSTGKTYKNHKATLLSWYLQDEKKFK”, the “soluble fraction (log2)” value was -1.49.
In the case of “HMDTVEALTEQLKKLDKRGEGQIPAPEFKQYMMNMGGKMTAEELDEMMKVADPGKEGVVNIAEFADAL”, the “soluble fraction (log2)” value is reported as -0.229.
In the case of “HMDTVEFPVQVNGKVRGKITVAADAGKDAIETAALADEKVLAFLDGATPKKVIVVPGKLVNLVVQPG”, the “soluble fraction (log2)” value is reported as no less than 0.43.
In the case of “HMDTVSYMSDAVKAGAVTPSHDEEARARYLLYAGFGAILLFLRYEASEPGDIESAIREFMERYGPVTAELY”, the “soluble fraction (log2)” value is reported as 0.00707.
With “HMDTYKGFIFEVVDKYFSPTLNQKIGQAKNKQGIVLLQTKPSFTQDPKVLIEELKLIIDRDNLKA” the “soluble fraction (log2)” value was -0.362.
In the case of “HMDVAAQITYAMRTMGVAPIPRNYELFYEAYIGSNPALTKELAALGSKATQEELDELGQQYF”, the “soluble fraction (log2)” value is reported as -1.43.
With “HMDVFPDESLKAWLIEMGFKLDQKKMNVFTVLRRMLLQTAPSVKEFRILEIVLQQSRRKLKELNDLKKS” the “soluble fraction (log2)” value was -0.36.
For “HMDVKQSAAGVAGRIRFELNRTLTGQGHEKFTSASQAIGPRPAAELARRLFNSGSVVGVHVFANIVTVDLL”, the “soluble fraction (log2)” value was 0.088.
In the case of “HMDVLKMKVEDLNIGSRTVNSLTAAKIKTVAGLIKKSKESLLELDGMGNKGVEEIILALKKLGLEL”, the “soluble fraction (log2)” value is reported as 0.345.
In the case of “HMDVPTEEAILAYNNVPIELAAKFIGWSDITIRYALQEERAPFGMAAQNPKTGTWSYNISPGLLLKYKSGE”, the “soluble fraction (log2)” value is reported as -0.39.
With “HMDVPVEVFMERIVTALREGRKTTFSELMEGKPERGKVIGTFLALLQLSKGQQIQIHQEQRTGEISIEGGA” the “soluble fraction (log2)” value was -1.03.
For “HMDVQTVTVIENVNVRKSASENGQKLGLAYTGEKLELLMKQADGWTRVKYNGETAYVKSDYV”, the “soluble fraction (log2)” value was -0.0843.
For “HMDVTSLDMLRFLMDQHGLRQQDLSELGSQGVVSEILAGKRELNLRHIGALARRFKVPPEVFLPA”, the “soluble fraction (log2)” value was -0.619.
In the case of “HMDVYKRQKLRNFIESLFEDAPKNKQTIELKEEMLQNLIDKYNDLVDSGKSSEAAYNIATAS”, the “soluble fraction (log2)” value is reported as -0.0341.
For “HMDWNPVRDITAHQVLAILQATHIRAPTVAAEAKRTLSSIFQFAVATLRADIDPVWPVRNALPKNKT”, the “soluble fraction (log2)” value was -0.561.
For “HMDYARYGLSEKEAELIELIAQGMNNKEISAEIYLSEGTVRNYISELLEKLELRDRTQLAVYYYTHR”, the “soluble fraction (log2)” value was -1.52.
With “HMDYDDLVPLDARGRLRLDGQDIILAFGRHRGRSIEEVHNHDKSYFDWLVSPAGGLEDEVIATLRERF” the “soluble fraction (log2)” value was -1.4.
With “HMDYENGTVKWFNTKKGYGFITRENGEDLFVHFRNIKGRGRRSLNDGEPVTFVVIEGDKGLQADQVSA” the “soluble fraction (log2)” value was -0.754.
With “HMDYGSLQRAIENQLEVRNYQKPKKFLTKIIQLMETIMVRHGVMVVGLTGTGKTTVIETLSRSMEQ” the “soluble fraction (log2)” value was -0.529.
In the case of “HMDYIGIQAAKEAALKDADISSEQAVFTMAELDNKNNIFYYQIMFTENGTEYRYDIDALTGVIIEKNHFF”, the “soluble fraction (log2)” value is reported as -0.0659.
In the case of “HMDYKLDVNFPEMYLEQIPAEKRAALIQILEQDPRPSYQKDPVRIYGMSYAGMEIHFRVDKETLYVTEVER”, the “soluble fraction (log2)” value is reported as -0.0453.
For “HMDYLSEFITDKVVRADGYSIRKGELSNEFKQWFITNVGTKNPKPKEIHDYMDRKFGKNKNGIWKNVKIKL”, the “soluble fraction (log2)” value was -0.0984.
With “HMDYQEVEFEKLGKEILTKILLDINKKATKKTLKILIDGFNYDSYRSFYIAIGKAQISSDSILELLQH” the “soluble fraction (log2)” value was -0.524.
With “HMDYSWNFFIGFSVVDKVAGNLGTIEEIDDKTINTLFLVKNDDEDLIIPATEDFVEKIDAKKRILYLNLPE” the “soluble fraction (log2)” value was -1.79.
In the case of “HMDYYASVDQVWRELGLAGPARRALIDDGLFKLSDLRKTSLAAVKELHGMGPNAIRILTTEMKKADLSFR”, the “soluble fraction (log2)” value is reported as no less than 0.43.
For “HMDYYDTLGVPRNASQSDIKKAYKKQSMQHHPDRTGGDDTKFKDVNEAYQVLSNSEKKQMYDQFGTA”, the “soluble fraction (log2)” value was 0.0201.
With “HMDYYNILGVNKAATAQDIKRAYRKLAKEHHPDHGGDATRLQQVNEAYDTLKDPQRREQYDS” the “soluble fraction (log2)” value was 0.0634.
In the case of “HMEAADAGTLAQRAAQYFNEKNYAAALDALERRAAMAPETTELRMMRGWSLLHLNRKDEARNAFATLG”, the “soluble fraction (log2)” value is reported as -0.188.
With “HMEAAIRNALSRVENPDETQRARIYRTAHDALIRNLENRGITDPEQVRPQVSRLKDLISVIEREYHG” the “soluble fraction (log2)” value was -0.0565.
For “HMEAALTLRVDKAGSLRSLLSDEQYAKTSKIIVSGEINTLDIKTLQEMSGEKGSLQSIDLSQANIVAY”, the “soluble fraction (log2)” value was -0.351.
In the case of “HMEAFELTPREKQVLQLLVQGKAYKIIAADLDITYDTVRAHIKKIYEKLHVGSMTEAVAKAIQHKL”, the “soluble fraction (log2)” value is reported as 0.194.
In the case of “HMEAKKVIAVHIIGEINKPGIVELEEGARVIDAIKKAGGTTEKADLAQINLAYILKDGQKIYIPNTEDN”, the “soluble fraction (log2)” value is reported as -0.334.
With “HMEALASESVKDKIRKIIDSEDPSRPMSDQRIKEMLKAANIDIARRTVTKYREAMNILSSTKRRQV” the “soluble fraction (log2)” value was -0.168.
In the case of “HMEALDPLTAREQEVLEMILSGKSNREIAAELHITENTVKTHAQSIYSKYDVRGRAKLISLLLKGEA”, the “soluble fraction (log2)” value is reported as -0.192.
With “HMEALQKVSINYYDEGAGKQIAEVPLEVGAGDTEIALAVINKYMPAEYNLVSTDYQIRGGYVYVSVTPA” the “soluble fraction (log2)” value was -0.215.
For “HMEAPPHEALSNREFQVLQLLSQGRSVTQIAHQLTLSANTISTYRARIFDKLGLHNPADLYAYAARHGLM”, the “soluble fraction (log2)” value was -0.0709.
With “HMEAPWQEIKRQVMDGLDMSREFTDEELRERIALAVRSYSKEKLLSLKVRESYEEQIFNSFR” the “soluble fraction (log2)” value was -0.261.
For “HMEAQFIDINDVRIGTYVYVDLGWIKHPFALNSFKITSRDQIDTLIKLGVKRIRWSPEKSDS”, the “soluble fraction (log2)” value was -0.483.
With “HMEARNDWAQQSRADAEFGGEKLDENLAVAKKAVEALASPELKTLLEQSGLGNHPEIIRLFYRAGRSLS” the “soluble fraction (log2)” value was -0.122.
In the case of “HMEATILTATPEAAGQRLDAFLAETLPELTRSAAQRLIAEGQVAVDGKIPTKSLKLAGGETVSVRLPEPE”, the “soluble fraction (log2)” value is reported as -0.0707.
With “HMEAVIGGIYRHYKGNNYKLLAVATHSETLEKMAVYQALYGEMGIWVRPLAMFMETIEKDGQSLKRFE” the “soluble fraction (log2)” value was -0.932.
In the case of “HMEDAWMKKELWDAIATLPKKQRLVMTMRLTNNHSYKEIAAILGISENSAKVSYHHAVERLKEKFK”, the “soluble fraction (log2)” value is reported as 0.0668.
In the case of “HMEDDPIYEQVMIFLLDKQITSAPELERRFKITHQRAIELLAQMEKTGIVSTMGHAGKRDVLT”, the “soluble fraction (log2)” value is reported as -0.355.
With “HMEDEFNQIASQKNVPSFLGKGKKEVINIAKKNKIKINLSGNGYVKRQIPAPGEVISHLDEVTIFLEPG” the “soluble fraction (log2)” value was -0.179.
With “HMEDEVYFVPSPASRFNPWIAALASRRVPYRVEYDGAERRIAVPAGYAEKAGEELAAYERINHAWPR” the “soluble fraction (log2)” value was -0.111.
With “HMEDFDLSDTERKIIAQIGHGYSNKEIAQKLGFSEGTIRNYLSVILDKLDLRDRTQLAIWYLSR” the “soluble fraction (log2)” value was -0.229.
In the case of “HMEDIAAIAQRIQGLRDIVGISVEEMAKALDISEQEYREYEKGETDFSFSFLYTVANVLGINITDLI”, the “soluble fraction (log2)” value is reported as -1.56.
